Test results: article PMC6597583

Key:
[1] = molecular target: AtCYP19-3 (Arabidopsis thaliana)
[2] = molecular target: BnCYP19-1 (Brassica napus)
[3] = molecular target: BnCYP18-4 (Brassica napus)
[4] = molecular target: BnCYP18-5 (Brassica napus)

IC50 of CsA for inhibition of PPIase activity (protease-coupled assay, substrate Suc-AAPF-pNA, 5 nM protein, 0 to 1000 nM CsA, 4 °C) [1]: 20.4 nM
IC50 of CsA for inhibition of PPIase activity (protease-coupled assay, substrate Suc-AAPF-pNA, 5 nM protein, 0 to 1000 nM CsA, 4 °C) [2]: 16.6 nM
IC50 of CsA for inhibition of PPIase activity (protease-coupled assay, substrate Suc-AAPF-pNA, 5 nM protein, 0 to 1000 nM CsA, 4 °C) [3]: 14.2 nM
IC50 of CsA for inhibition of PPIase activity (protease-coupled assay, substrate Suc-AAPF-pNA, 5 nM protein, 0 to 1000 nM CsA, 4 °C) [4]: 22.4 nM
Substance: cyclosporin A (peptide)
